Assay [1] concerns the target CD20 (human) (UniProt P11836). Briefly: Scatchard analysis, cold antibody against 125I-2H7.v16 on WIL2-S cells.
Assay [2] concerns the target CD20 (human) (UniProt P11836). Briefly: cell-based or functional assay.

By Kd is commonly meant a measure of binding affinity in units of concentration. Read a low Kd as a tighter complex.

Sequence of CD20 (human) (P11836 whole entry): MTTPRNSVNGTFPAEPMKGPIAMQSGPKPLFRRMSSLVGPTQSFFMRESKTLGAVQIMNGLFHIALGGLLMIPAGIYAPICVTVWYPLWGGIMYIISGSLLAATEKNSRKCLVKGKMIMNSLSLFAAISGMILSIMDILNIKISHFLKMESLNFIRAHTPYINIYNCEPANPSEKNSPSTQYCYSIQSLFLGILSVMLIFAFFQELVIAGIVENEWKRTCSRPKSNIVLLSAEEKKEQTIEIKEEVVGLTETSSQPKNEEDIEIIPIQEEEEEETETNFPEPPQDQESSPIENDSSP

Take Rituxan (rituximab) (antibody): the dissociation constant Kd in the assay with CD20 (human) [1] was found to be 0.99 nM. Besides, in the assay with CD20 (human) [2], the ADCC on WIL2-S cells, EC50(variant)/EC50(2H7.v16) was determined as 5.3; the ADCC on WIL2-S cells, EC50(variant)/EC50(Rituxan) is 1; the CDC on WIL2-S cells, EC50(variant)/EC50(Rituxan) stood at 1; the fraction of Annexin V stained Ramos cells at 10 nM crosslinked antibody turned out to be 16.5%. Also, in the assay with CD20 (human) [2], the fraction of doubly labeled (Annexin V and propidium iodide) Ramos cells at 10 nM was 38%; the live Ramos cells counted per 10 s at 10 nM (cells per 10 s) came to 3100.

For the origin of these results see patent US20060024300A1.
